# Measured values as given in the supplement of paper PMC9112550, “Optimization of the antimicrobial peptide Bac7 by deep mutational scanning” (BMC Biology, 2022).
# Tested on: Escherichia coli TOP10
# Assay: shrunken log2 fold change of peptide-encoding DNA abundance (4.5 h post-induction vs induction); higher = less antimicrobial activity (less host growth inhibition)
# Details: time post-induction: 4.5 h; library: site-saturation at positions 5, 18, 19, 20
# 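Also: peptides expressed intracellularly from a pBAD plasmid library in pooled LB shake-flask culture, induced with 0.3% L-arabinose, DNA abundance read by NGS, three biological replicates, DESeq2 with apeglm shrinkage.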
row,Sequence,shrunken log2 fold change
1,RRIRVRPPRLPRPRPRPVLHPRP,-0.243
2,RRIRARPPRLPRPRPRPFRYPRP,-0.283
3,RRIRRRPPRLPRPRPRPIDFPRP,0.137
4,RRIRARPPRLPRPRPRPKNDPRP,0.222
5,RRIRLRPPRLPRPRPRPSIIPRP,-0.735
6,RRIRRRPPRLPRPRPRPPTMPRP,0.374
7,RRIRIRPPRLPRPRPRPEPQPRP,-0.0904
8,RRIRARPPRLPRPRPRPDGEPRP,0.209
9,RRIRARPPRLPRPRPRPIKGPRP,0.3
10,RRIRSRPPRLPRPRPRPMCYPRP,-0.0971
11,RRIRHRPPRLPRPRPRPHEDPRP,0.0316
12,RRIRGRPPRLPRPRPRPESWPRP,1.7
13,RRIRRRPPRLPRPRPRPKEDPRP,0.196
14,RRIRWRPPRLPRPRPRPCLRPRP,0.0809
15,RRIRWRPPRLPRPRPRPNWRPRP,0.184
16,RRIRDRPPRLPRPRPRPIEAPRP,0.184
17,RRIRDRPPRLPRPRPRPCFRPRP,-0.157
18,RRIRKRPPRLPRPRPRPISYPRP,-0.0078
19,RRIRIRPPRLPRPRPRPRFQPRP,-0.0961
20,RRIRRRPPRLPRPRPRPCMSPRP,-0.00622
21,RRIRTRPPRLPRPRPRPGECPRP,-0.258
22,RRIRVRPPRLPRPRPRPDAHPRP,0.21
23,RRIRTRPPRLPRPRPRPACVPRP,0.235
24,RRIRHRPPRLPRPRPRPFQWPRP,-0.139
25,RRIRNRPPRLPRPRPRPAPTPRP,0.809

row,Sequence,shrunken log2 fold change
1,RRIRFRPPRLPRPRPRPYYAPRP,-1.21
2,RRIRWRPPRLPRPRPRPWTVPRP,-0.0123
3,RRIRGRPPRLPRPRPRPPQNPRP,1.01
4,RRIRGRPPRLPRPRPRPGNCPRP,0.131
5,RRIRKRPPRLPRPRPRPLVYPRP,-0.23
6,RRIRARPPRLPRPRPRPEPAPRP,1.43
7,RRIRPRPPRLPRPRPRPLNYPRP,-0.615
8,RRIRFRPPRLPRPRPRPYKNPRP,-0.957
9,RRIRSRPPRLPRPRPRPDWYPRP,-0.3
10,RRIRFRPPRLPRPRPRPETLPRP,0.0591
11,RRIRFRPPRLPRPRPRPSALPRP,0.0201
12,RRIRHRPPRLPRPRPRPRLIPRP,-0.0786
13,RRIRHRPPRLPRPRPRPWGFPRP,-0.0192
14,RRIRCRPPRLPRPRPRPDMHPRP,0.0405
15,RRIRPRPPRLPRPRPRPQNYPRP,-0.395
16,RRIRWRPPRLPRPRPRPVCGPRP,0.649
17,RRIRARPPRLPRPRPRPAVDPRP,0.289
18,RRIRRRPPRLPRPRPRPIKNPRP,0.278
19,RRIRDRPPRLPRPRPRPFNFPRP,-0.703
20,RRIRARPPRLPRPRPRPENDPRP,0.085
21,RRIRWRPPRLPRPRPRPPETPRP,0.166
22,RRIRCRPPRLPRPRPRPWYTPRP,-0.739
23,RRIRDRPPRLPRPRPRPFPSPRP,-0.0268
24,RRIRNRPPRLPRPRPRPYYCPRP,-0.0454
25,RRIRDRPPRLPRPRPRPNFDPRP,-0.0173

row,Sequence,shrunken log2 fold change
1,RRIRNRPPRLPRPRPRPIQKPRP,-0.287
2,RRIRFRPPRLPRPRPRPWLWPRP,-0.052
3,RRIRTRPPRLPRPRPRPEQLPRP,0.117
4,RRIRKRPPRLPRPRPRPLPAPRP,1.13
5,RRIRWRPPRLPRPRPRPPEVPRP,0.334
6,RRIRCRPPRLPRPRPRPHRIPRP,-0.492
7,RRIRGRPPRLPRPRPRPNIVPRP,0.364
8,RRIRFRPPRLPRPRPRPSNCPRP,-0.529
9,RRIRDRPPRLPRPRPRPAPPPRP,0.71
10,RRIRGRPPRLPRPRPRPPHLPRP,0.558
11,RRIRIRPPRLPRPRPRPVGYPRP,0.0961
12,RRIRKRPPRLPRPRPRPGFTPRP,0.0173
13,RRIRIRPPRLPRPRPRPARGPRP,0.624
14,RRIRARPPRLPRPRPRPKCQPRP,0.432
15,RRIRRRPPRLPRPRPRPIIMPRP,-0.444
16,RRIRLRPPRLPRPRPRPYPDPRP,-0.598
17,RRIRPRPPRLPRPRPRPQITPRP,-0.314
18,RRIRWRPPRLPRPRPRPHHNPRP,-0.478
19,RRIRMRPPRLPRPRPRPVGTPRP,0.477
20,RRIRIRPPRLPRPRPRPNFAPRP,0.0322
21,RRIRSRPPRLPRPRPRPPTFPRP,-0.0599
22,RRIRERPPRLPRPRPRPERAPRP,-0.024
23,RRIRNRPPRLPRPRPRPHSSPRP,-0.00587
24,RRIRGRPPRLPRPRPRPWNYPRP,-0.0902
25,RRIRYRPPRLPRPRPRPNTCPRP,-0.155
